Measured values taken from IntAct's records for PubMed 25946333.

Assays:
nemp1_mouse Nemp1 [1] = biological target: T1, nemp1_mouse Nemp1 (UniProt Q6ZQE4)
T1 sequence: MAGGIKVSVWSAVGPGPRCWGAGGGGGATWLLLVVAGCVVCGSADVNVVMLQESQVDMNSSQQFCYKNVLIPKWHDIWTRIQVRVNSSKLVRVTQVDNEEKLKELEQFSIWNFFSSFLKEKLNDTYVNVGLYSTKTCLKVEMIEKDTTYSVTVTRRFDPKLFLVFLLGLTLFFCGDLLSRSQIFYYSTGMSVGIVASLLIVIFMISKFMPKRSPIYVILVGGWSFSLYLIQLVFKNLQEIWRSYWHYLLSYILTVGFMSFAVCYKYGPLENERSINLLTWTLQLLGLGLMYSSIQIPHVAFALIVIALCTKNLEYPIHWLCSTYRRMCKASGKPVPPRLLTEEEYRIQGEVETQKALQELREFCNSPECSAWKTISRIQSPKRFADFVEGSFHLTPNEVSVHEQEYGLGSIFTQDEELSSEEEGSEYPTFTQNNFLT

nemp1_mouse Nemp1 [2] = biological target: T1, nemp1_mouse Nemp1; remark: listed apart in the source

effect of a mutation on the interaction (nemp1_mouse Nemp1 [1])	effect of a mutation on the interaction (nemp1_mouse Nemp1 [2])	Substance
with no effect	–	GTP-binding nuclear protein Ran (Mus musculus) (from UniProt P62827) Q69L
disrupting interaction strength	decreasing interaction strength	GTP-binding nuclear protein Ran (Mus musculus) (from UniProt P62827) T24N
disrupting interaction strength	–	GTP-binding nuclear protein Ran (Mus musculus) (from UniProt P62827) T42A
